Changes are numbered by the printed parent chain. Names may count otherwise. Blank lines part the entries; values can stand above or below the binder they belong to.
How the values were obtained:
[1] = target: T1, human GITR (amino acids M1-V241, NCBI Accession #NP_004186.1) expressed on cells (human, UniProt Q9Y5U5 26-241); experiment: ECL cell binding, hGITR/HEK293-D9
T1 construct: also called hGITR; hGITR/HEK293-D9
T1 sequence: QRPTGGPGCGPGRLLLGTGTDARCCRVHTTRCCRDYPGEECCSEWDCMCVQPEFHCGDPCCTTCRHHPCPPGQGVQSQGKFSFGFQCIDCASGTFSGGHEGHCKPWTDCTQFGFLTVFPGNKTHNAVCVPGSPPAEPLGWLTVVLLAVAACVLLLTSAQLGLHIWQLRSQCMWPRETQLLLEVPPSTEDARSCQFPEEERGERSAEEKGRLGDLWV
Description: Nonspecific binding sites were blocked with 2% BSA (w/v)+PBS for 1 h at room temperature (RT). Next, serial dilutions of anti-GITR antibodies, ranging from 1.7 pM to 100 nM, were added to cells for 1 h at RT. Plates were then washed to remove unbound antibodies (AquaMax2000 plate washer, MSD Analytical Technologies) and plate-bound antibodies were detected with a SULFO-TAG™ conjugated anti-human kappa light chain IgG antibody (Jackson Immunoresearch) for 1 h at RT.
Following washes, luminescent signals were recorded with a SECTOR Imager 6000 (MSD) instrument. Direct binding signals (relative light units, RLU) were analyzed as a function of the antibody concentration and data were fitted with a sigmoidal (four-parameter logistic) dose-response model using GraphPad Prism™ software. […] The signal detected with 100 nM antibody binding to the hGITR expressing cells versus parental cells was recorded as an indication of intensity and specificity of GITR binding.

[2] = target: T1, human GITR (amino acids M1-V241, NCBI …); experiment: cell-based or functional assay
hGITR.mFc = target: T2, hGITR.mFc (human); experiment: SPR 37C, mAb capture
T2 construct: soluble dimeric construct with mouse Fc; also called dimeric human GITR
T2 chain: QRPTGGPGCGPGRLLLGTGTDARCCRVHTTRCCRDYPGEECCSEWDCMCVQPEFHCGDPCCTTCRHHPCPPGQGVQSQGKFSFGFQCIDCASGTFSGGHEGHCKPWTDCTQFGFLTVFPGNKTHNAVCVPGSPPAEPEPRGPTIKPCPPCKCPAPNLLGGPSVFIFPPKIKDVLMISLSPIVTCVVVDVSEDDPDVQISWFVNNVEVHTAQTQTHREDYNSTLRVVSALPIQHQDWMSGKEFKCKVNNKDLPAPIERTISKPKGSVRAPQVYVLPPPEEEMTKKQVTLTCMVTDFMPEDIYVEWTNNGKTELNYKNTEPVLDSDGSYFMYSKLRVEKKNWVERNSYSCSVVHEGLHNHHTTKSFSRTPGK
Description: (§1) (Table 3). […] GITR proteins were injected over the sensor surface at a flow rate of 30 μL/minute. All Biacore binding studies were performed in a buffer composed of 0.01M HEPES pH 7.4, 0.15M NaCl, 3 mM EDTA, 0.05% v/v Surfactant P20 (HBS-ET running buffer). Antibody-reagent association was monitored for 4 minutes while dissociation in HBS-ET running buffer (10 mM HEPES, 150 mM NaCl, 3 mM EDTA, 0.05% (v/v) Surfactant P20, pH 7.4) was monitored for 10 minutes. Kinetic association (kₐ) and dissociation (kd) rate constants were determined by fitting the real-time sensorgrams to a 1:1 binding model using Scrubber 2.0c curve fitting software. Binding dissociation equilibrium constants (KD) and dissociative half-lives (t ½) were calculated from the kinetic rate constants as: KD [M]=kd/kₐ; and t_{1/2}(min)=(ln 2/(60*kd). Results are summarized in Table 3.

hGITR.mmh = target: T3, hGITR.mmh (human); experiment: SPR 37C, mAb capture
T3 construct: soluble monomeric construct; also called human (h) GITR.mmh; monomeric human GITR
T3 chain: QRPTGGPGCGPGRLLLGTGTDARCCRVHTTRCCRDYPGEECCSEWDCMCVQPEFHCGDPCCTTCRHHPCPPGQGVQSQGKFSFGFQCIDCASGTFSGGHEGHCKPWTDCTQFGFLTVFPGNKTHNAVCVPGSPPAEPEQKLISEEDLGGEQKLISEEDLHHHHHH
Description: as §1

mfGITR.mmh = target: T4, mfGITR.mmh (Macaca fasicularis); experiment: SPR 37C, mAb capture
T4 construct: soluble monomeric construct; also called Macaca fasicularis (mf) GITR.mmh; cynomolgus GITR protein
T4 chain: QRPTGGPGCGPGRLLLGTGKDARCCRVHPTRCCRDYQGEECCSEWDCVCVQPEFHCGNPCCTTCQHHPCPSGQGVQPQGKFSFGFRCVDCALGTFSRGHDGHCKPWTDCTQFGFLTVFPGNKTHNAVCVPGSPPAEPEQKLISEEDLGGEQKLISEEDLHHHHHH
Description: as §1

B1: H1H14474P (antibody, human IgG1, V domains shown)
VH: QVQLVESGGGVVQPGRSLRLSCAASGFTFSSYGMDWVRQAPGKGLEWVAVIWYPGSNKYYADSVKGRFTVSRDNSKNTLYLQMNSLRAEDTAVYYCARDGELGLDYYSGMDVWGQGTTVTVSS
VL: DIQMTQSPSSLSASVGDRVTITCRASQGIRNDLNWYQQKPGKAPKRLINGASSLQSGVPSRFSGSGSGTEFTLTISSLQPEDFATYYCLQLNSYPRTFGQGTKVEIK
notes: human IgG1 (H1H)
Average Signal (RLU) at 100 nM [1]: 6230 RLU
EC50 [1]: 0.28 nM
% Activation, NF-kB-Luc, non-anchored [2]: 30%
% Blocking, NF-kB-Luc, non-anchored [2]: 80%
EC50, hGITR activation, NF-kB-Luc, non-anchored [2]: 1.2 nM
IC50, blocking of hGITRL stimulation, NF-kB-Luc, non-anchored [2]: 0.8 nM
Kd (hGITR.mFc): 0.107 nM
koff (hGITR.mFc): 0.00013 s⁻¹
kon (hGITR.mFc): 1.21e+06 M⁻¹ s⁻¹
t½ (hGITR.mFc): 89.2 min
Kd (hGITR.mmh): 1.96 nM
koff (hGITR.mmh): 0.00116 s⁻¹
kon (hGITR.mmh): 591000 M⁻¹ s⁻¹
t½ (hGITR.mmh): 9.9 min
Kd (mfGITR.mmh): 28 nM
koff (mfGITR.mmh): 0.00951 s⁻¹
kon (mfGITR.mmh): 339000 M⁻¹ s⁻¹
t½ (mfGITR.mmh): 1.2 min

B4: H1H14503P (antibody, human IgG1, V domains shown)
VH: QVQLVESGGGVVQPGRSLRLSCEASGFTFSNYGFHWVRQAPGKGLDWVAVIWYAGSNKFYVDSVQGRFTISRDNSKQILFLQMNSLRAEDSAVYYCVRGGILGIDYYSGMDVWGQGTTVTVSS
VL: AIQMTQSPSSLSASVGDRVTITCRASQDIRNDLGWYQQRPGKAPKFLIYSTSSLQSGVPSRFSGSGSGTDFILTISSLQPEDFATYYCLQSHNYPWTFGHGTKVEIK
notes: human IgG1 (H1H)
Average Signal (RLU) at 100 nM [1]: 5880 RLU
EC50 [1]: 0.21 nM
% Activation, NF-kB-Luc, non-anchored [2]: 50%
% Blocking, NF-kB-Luc, non-anchored [2]: 90%
EC50, hGITR activation, NF-kB-Luc, non-anchored [2]: 1.4 nM
IC50, blocking of hGITRL stimulation, NF-kB-Luc, non-anchored [2]: 0.6 nM
Kd (hGITR.mFc): 0.137 nM
koff (hGITR.mFc): 0.000154 s⁻¹
kon (hGITR.mFc): 1.12e+06 M⁻¹ s⁻¹
t½ (hGITR.mFc): 75 min
Kd (hGITR.mmh): 1.39 nM
koff (hGITR.mmh): 0.000739 s⁻¹
kon (hGITR.mmh): 532000 M⁻¹ s⁻¹
t½ (hGITR.mmh): 15.6 min
Kd (mfGITR.mmh): 20.9 nM
koff (mfGITR.mmh): 0.0056 s⁻¹
kon (mfGITR.mmh): 268000 M⁻¹ s⁻¹
t½ (mfGITR.mmh): 2.1 min

Second part, the binder after the results:

Average Signal (RLU) at 100 nM [1]: 5740 RLU
EC50 [1]: 0.21 nM
% Activation, NF-kB-Luc, non-anchored [2]: 40%
% Blocking, NF-kB-Luc, non-anchored [2]: 80%
EC50, hGITR activation, NF-kB-Luc, non-anchored [2]: 2.2 nM
IC50, blocking of hGITRL stimulation, NF-kB-Luc, non-anchored [2]: 0.7 nM
Kd (hGITR.mFc): 0.146 nM
koff (hGITR.mFc): 0.000135 s⁻¹
kon (hGITR.mFc): 922000 M⁻¹ s⁻¹
t½ (hGITR.mFc): 85.6 min
Kd (hGITR.mmh): 3.62 nM
koff (hGITR.mmh): 0.00147 s⁻¹
kon (hGITR.mmh): 405000 M⁻¹ s⁻¹
t½ (hGITR.mmh): 7.9 min
Kd (mfGITR.mmh): 158 nM
koff (mfGITR.mmh): 0.0189 s⁻¹
kon (mfGITR.mmh): 120000 M⁻¹ s⁻¹
t½ (mfGITR.mmh): 0.6 min
B2: H1H14524P (antibody, human IgG1, V domains shown)
VH: QVQLVESGGGVAQPGRSLSLSCAASGFTFSDYGMHWVRQAPGKGLEWVAVIWYAGSNKYYADSVKDRFTISRDNSKNTLYLQMRSLRVEDTAVYYCARGGELRLDYYSGLDVWGQGTTVTVSS
VL: B1 VL with I21V, N31S, N34G, N49Y, G50A, L54F, Q79H, L91S, S93N, R96W
notes: human IgG1 (H1H)

Average Signal (RLU) at 100 nM [1]: 6350 RLU
EC50 [1]: 0.4 nM
% Activation, NF-kB-Luc, non-anchored [2]: 40%
% Blocking, NF-kB-Luc, non-anchored [2]: 70%
EC50, hGITR activation, NF-kB-Luc, non-anchored [2]: 2.5 nM
IC50, blocking of hGITRL stimulation, NF-kB-Luc, non-anchored [2]: 0.9 nM
Kd (hGITR.mFc): 0.216 nM
koff (hGITR.mFc): 0.00012 s⁻¹
kon (hGITR.mFc): 555000 M⁻¹ s⁻¹
t½ (hGITR.mFc): 96.3 min
Kd (hGITR.mmh): 8.63 nM
koff (hGITR.mmh): 0.00186 s⁻¹
kon (hGITR.mmh): 216000 M⁻¹ s⁻¹
t½ (hGITR.mmh): 6.2 min
Kd (mfGITR.mmh): 88.5 nM
koff (mfGITR.mmh): 0.0109 s⁻¹
kon (mfGITR.mmh): 123000 M⁻¹ s⁻¹
t½ (mfGITR.mmh): 1.1 min
B3: H1H14523P (antibody, human IgG1, V domains shown)
VH: QVQLVESGGGVVQPGRSLRLSCEASGFTFSSYGMHWVRQAPGKGLEWVAVIWYSESNKYYTDSMKGRLTISRDNSKNTLYLQMNSLRAEDTAVYYCARGGLLGKYYYYGMDVWGQGTTVTVSS
VL: B1 VL with T20I, G28D, N34G, N49Y, G50A, Y86F, R96Y, V104L
notes: human IgG1 (H1H)

— US20170355774A1 (Regeneron, published 2017)
